Measured values taken from article PMC5727116, “PEPD is a pivotal regulator of p53 tumor suppressor” (Nature Communications, 2017).

Molecular target: T1, recombinant human p53, N-terminal His tag (human, UniProt P04637 1-393)
T1 construct: human p53, wild type, 393 aa per subunit as printed; plasmid pET15b-His-human p53; also called WT p53; source: E. coli, purified (nickel nitrilotriacetic acid-agarose chromatography)
Assay: co-IP; purified PEPD or a PEPD mutant at 100 nM incubated with p53 at 200 nM in PBS, 100 µl, 2 h, room temperature; then PEPD antibody (2 µg) in 300 µl PBS overnight at 4 °C, protein G-agarose, IB
Details: both partners purified

T1 sequence (P04637 whole entry): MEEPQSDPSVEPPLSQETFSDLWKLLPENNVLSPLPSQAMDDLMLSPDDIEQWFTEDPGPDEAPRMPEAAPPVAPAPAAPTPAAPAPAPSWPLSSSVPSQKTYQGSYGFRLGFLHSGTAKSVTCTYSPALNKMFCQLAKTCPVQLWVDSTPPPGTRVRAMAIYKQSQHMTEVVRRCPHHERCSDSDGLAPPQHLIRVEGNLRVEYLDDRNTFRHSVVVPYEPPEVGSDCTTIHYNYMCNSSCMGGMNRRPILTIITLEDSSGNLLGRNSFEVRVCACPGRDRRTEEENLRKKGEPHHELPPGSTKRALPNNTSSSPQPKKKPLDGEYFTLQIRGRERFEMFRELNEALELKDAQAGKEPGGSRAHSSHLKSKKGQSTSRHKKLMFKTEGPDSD

B1: recombinant human PEPD^265-493aa, C-terminal His tag (domain or fragment, UniProt P12955 265-493, looked up)
chain: RTIQNGDMCLFDMGGEYYCFASDITCSFPANGKFTADQKAVYEAVLRSSRAVMGAMKPGVWWPDMHRLADRIHLEELAHMGILSGSVDAMVQAHLGAVFMPHGLGHFLGIDVHDVGGYPEGVERIDEPGLRSLRTARHLQPGMVLTVEPGIYFIDHLLDEALADPARASFLNREVLQRFRGFGGVRIEEDVVVTDSGIELLTCVPRTVEEIEACMAGCDKAFTPFSGPK
notes: also called C-terminal 229 aa; source: E. coli, purified (nickel nitrilotriacetic acid-agarose chromatography)
B1: binds.
